Measured values: article PMC4193741 (PLoS ONE, 2014)

B1: S5 scFv (scFv, V domains shown)
VH: EVQLLESGGGLVQPGGSLRLSCAASGFTFSNYCIGWVRQAPGKGLEWVSPINSNNSNTEYADSVKGRFTISRDNSKNTLYLQMNSLRAEDTAVYYCARCSLPQISHFDYWGQGTLVTVSS
VL: EIVLTQSPGTLSLSPGERATLSCRASQNVSNYVSWYQQKPGQAPRLLIYDISTLQTGIPDRFSGSGSGTDFTLTISRLEPEDFAVYYCPKRVSTGGTFGQGTKVEIK
B2: SP1 scFv (scFv, V domains shown)
VH: EVQLLESGGGLVQPGGSLRLSCAASGFTFSDYAMYWVRQAPGKGLEWVSGIDINGSNTKYADSVKGRFTISRDNSKNTLYLQMNSLRAEDTAVYYCARKYNHNNHQNTTNFDYWGQGTLVTVSS
VL: EIVLTQSPGTLSLSPGERATLSCRASQNSSSYLSWYQQKPGQAPRLLIYYTSKLESGIPDRFSGSGSGTDFTLTISRLEPEDFAVYYCETVPSLLGVFGQGTKVEIK
notes: also called clone SP1; anti-PreS2 SP1 scFv

Tests used:
[1] = biological target: T1, GST-fused N1 antigen (N1 epitope of H1N1 influenza virus) (Influenza A virus H1N1, neuraminidase …); assay: SPR; Biacore 3000, CM5 chip; […], PBS running buffer; […]; conditions: both partners purified
T1 construct: not shown: GST, N-terminal, kept
T1 chain: CRDNWHGSNRPW

[2] = biological target: T2, GST-fused PreS2 antigen (PreS2 epitope of HBV) (Hepatitis B virus, PreS2 epitope …); assay: as above; conditions: both partners purified
T2 construct: also called GST-PreS2; PreS2 of HBV; not shown: GST, N-terminal, kept
T2 chain: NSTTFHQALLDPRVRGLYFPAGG

| Binder | Kd [1] | Kd [2] |
| --- | --- | --- |
| B1 | 11 nM |  |
| B2 |  | 11.5 nM |
